Read-outs that look alike come from different tables or passages of the source.
What was measured:
[1] = Stability and reproducibility of labeled binding proteins by binding assays; assay type: physicochemical; conditions: 5 months after preparation
Procedure: The stability of the binding proteins was determined by binding assays. The labeled binding proteins can be stored in phosphate buffer at 4° C. for at least 5 months. […] While not wishing to be bound by theory, factors that could have caused this change include fluorophore and protein. In any case, the recalibration of the biosensor during its use in fermentation or cell culture is unnecessary because fermentation or cell culture usually lasts from only several hours to a few days.

[2] = Glutamine measurement in lymphoblast cell culture, GlnBP sensor versus YSI; conditions: cell culture medium
Procedure: The cells used in the cell culture came from two different cell lines, GM010178 and GM14649, both lymphoblasts from […]. These cell lines were obtained commercially from Coriell Cell Repositories, and have been grown in a solution of 15% Fetal Bovine Serum in RPMI Medium 1640 with GlutaMAX™ (Gibco™, Grand Island, N.Y.). For the 100 mL cell culture, 50 mL of fresh medium was mixed with 50 mL of inoculum in a 250 mL polystyrene flask, and then incubated in a CO2 incubator (Precision Scientific, Chicago, Ill.) until the color of the medium turned from red to yellow. 1 mL of sample was taken from the culture every 2 h for analysis. […] The glutamine concentration was then measured with a YSI 2700 Chemistry Analyzer and concurrently with the glutamine biosensor by diluting a small volume of sample 1,000 times. […] One microliter of sample was taken each time and the glutamine concentration was measured with the present biosensor thereafter.
As in the determination of glucose, analysis of glutamine by the GlnBP sensor was compared to the YSI Chemistry Analyzer. […] The hydrogen peroxide that is released is detected at the platinum electrode. Since glutamate oxidase can also detect the glutamate that is already present in the media, the reading of the glutamine sensor is actually the sum of glutamine and glutamate in the media. […]

[3] = Reported (literature) binding of glutamine to GlnBP; conditions: yielded by the reported ka and kd; read-out: dissociation constant
Procedure: (§1) This figure seeks to illustrate two things. First, the fluorescence intensity of acrylodan (λmax=515 nm) decreased with increasing concentration of glutamine. Concurrently, the luminescence intensity of Ru remained constant at λmax=610 nm. Second, the standard solutions of glutamine (0.1 to 6.4 mM) were prepared in glutamine-free Dulbecco's modified Eagle media (DMEM), a commonly used media for tissue culture. The resulting solutions were then diluted 1000× with PBS and used in the assay. The submicromolar sensitivity of the protein for glutamine remained virtually unchanged from that observed with the acrylodan label alone, as shown in DATTELBAUM et al., Anal. Biochem., 291:89-95 (2001), which is incorporated by reference herein. […]
The apparent binding constants were calculated by fitting the experimental results to the binding isotherm (DATTELBAUM et al., Anal. Biochem., 291:89-95 (2001), which is incorporated by reference herein). The binding constants for the single-labeled and doubled-labeled GlnBP were calculated to be 0.23±0.01 μM and 0.28±0.03 μM, respectively. […] The binding constant of GBP for glucose was calculated to be 0.78±0.07 μM, which also agrees well with the reported value of 0.8 μM (HELLINGA et al., Trends Biotechnol., 16:183-189 (1998), which is incorporated by reference herein). […]

[4] = cited from earlier work
[5] = Fluorescence binding isotherm of labeled S179C GlnBP; conditions: fit to binding isotherm, read-out: binding constant for glutamine
Procedure: The emission spectra were recorded on a Varian Cary Eclipse fluorescence spectrophotometer (Varian Instruments, Walnut Creek, Calif.). All samples were measured in quartz cuvettes (Starna Cells, Inc., Atascadero, Calif.).
The apparent binding constants were calculated by fitting the experimental results to the binding isotherm (DATTELBAUM et al., Anal. Biochem., 291:89-95 (2001), which is incorporated by reference herein). The binding constants for the single-labeled and doubled-labeled GlnBP were calculated to be 0.23±0.01 μM and 0.28±0.03 μM, respectively. Both were in agreement with the reported value of 100-300 nM for the wild type (SOHANPAL et al., Sensors Actuators B, 11:547-552 (1993), which is incorporated by reference herein). While not wishing to be bound by theory, the reason for this agreement is believed to be that the position of the fluorophore is far from the binding site, consequently, the binding affinity is not greatly affected. The binding constant of GBP for glucose was calculated to be 0.78±0.07 μM, which also agrees well with the reported value of 0.8 μM (HELLINGA et al., Trends Biotechnol., 16:183-189 (1998), which is incorporated by reference herein).

[6] = Steady-state emission intensity ratio (I515/I610) of Ru-GlnBP-Acr versus glutamine; assay type: binding
Procedure: Steady-state emission spectra were recorded on a Varian Cary Eclipse spectrofluorimeter (Varin Instruments, Walnut Creek, Calif.). Time-resolved luminescence decays were measured on a frequency domain fluorimeter (ISS-Koala, Champaign, Ill.) with the following modifications. Blue LED LNG992CFBW (Panasonic, Secaucus, N.J.) driven by a current source was used as the excitation source. The modulation voltage was applied through bias T. The standard radiofrequency amplifier for the photomultiplier tubes was replaced with a ZHL-6A 1-circuits, Brooklyn, N.Y.) to enhance the low-frequency performance. The excitation light was filtered by 500-, 550-, and 650 FL07 short-wave pass filters (Andover, Salem, N.H.). The emission light was filtered by a 500 FH90 long-wave pass filter (Andover). Luminescence decay data were analyzed by nonlinear least-squares methods.
as §1, with “assay.” for “assay. The submicromolar sensitivity of the protein for glutamine remained virtually unchanged from that observed with the acrylodan label alone, as shown in DATTELBAUM et al., Anal. Biochem., 291:89-95 (2001), which is incorporated by reference herein.”

Kd [3] | Kd ([5]; listed as single-labeled GlnBP) | Kd [5] | Kd ([6]; from I515/I610 ratio, glutamine standards in DMEM diluted 1000× with PBS, 2.0 μM protein, read-out: apparent binding constant K′d for a single binding site) | Molecule | change of calibration curve after storage [1] | selectivity: response to glutamine versus glutamate [2] | ka for the binding ([4]; reported, WEINER et al.) | kd for the dissociation ([4]; reported, WEINER et al.) | Kd ([4]; literature value, read-out: reported dissociation constant for the wild type) | interference of other DMEM components with glutamine binding ([6]; DMEM diluted 1000× with PBS)
163 nM | 230 ± 10 nM | 200 nM | – | GlnBP-Acr: S179C variant of E. coli glutamine-binding protein labeled with acrylodan at cysteine 179 (protein, UniProt P0AEQ3 23-248, looked up, variant S179C, acrylodan label at C179) Glutamine-binding periplasmic …: ADKKLVVATDTAFVPFEFKQGDKYVGFDVDLWAAIAKELKLDYELKPMDFSGIIPALQTKNVDLALAGITITDERKKAIDFSDGYYKSGLLVMVKANNNDVKSVKDLDGKVVAVKSGTGSVDYAKANIKTKDLRQFPNIDNAYMELGTNRADAVLHDTPNILYFIKTAGNGQFKAVGDCLEAQQYGIAFPKGSDELRDKVNGALKTLRENGTYNEIYKKWFGTEPK | underwent some changes in 5 months after preparation, but was still responsive to glutamine | responsive to glutamine but not to glutamate | 9.8e+07 M⁻¹ s⁻¹ | 16 s⁻¹ | – | –
– | – | – | – | wild type: wild type glutamine-binding protein, literature dissociation constant (protein, UniProt P0AEQ3 23-248, looked up) Glutamine-binding periplasmic …: ADKKLVVATDTAFVPFEFKQGDKYVGFDVDLWAAIAKELKLDYELKPMDFSGIIPALQTKNVDLALAGITITDERKKAIDFSDGYYKSGLLVMVKANNNDVKSVKDLDGKVVAVKSGTGSVDYAKANIKTKDLRQFPNIDNAYMELGTNRADAVLHDTPNILYFIKTAGNGQFKAVGDSLEAQQYGIAFPKGSDELRDKVNGALKTLRENGTYNEIYKKWFGTEPK | – | – | – | – | 100 to 300 nM | –
– | – | 280 ± 30 nM | 720 ± 100 nM | Ru-GlnBP-Acr: S179C GlnBP labeled at the cysteine with acrylodan and at the N-terminal with ruthenium bis-(2,2′-bipyridyl)-1,10-phenanthroline-9-isothiocyanate (protein, UniProt P0AEQ3 23-248, looked up, variant S179C, acrylodan; N-terminal ruthenium complex label, S179C GlnBP labeled at the cysteine with acrylodan and at the N-terminal with ruthenium bis-(2,2′-bipyridyl)-1,10-phenanthroline-9-isothiocyanate) Glutamine-binding periplasmic …: ADKKLVVATDTAFVPFEFKQGDKYVGFDVDLWAAIAKELKLDYELKPMDFSGIIPALQTKNVDLALAGITITDERKKAIDFSDGYYKSGLLVMVKANNNDVKSVKDLDGKVVAVKSGTGSVDYAKANIKTKDLRQFPNIDNAYMELGTNRADAVLHDTPNILYFIKTAGNGQFKAVGDCLEAQQYGIAFPKGSDELRDKVNGALKTLRENGTYNEIYKKWFGTEPK | – | – | – | – | – | did not interfere with the binding of glutamine
